Variants at the floor of the assay were thinned out.
Experiments:
biotinyl-Met-oxazolone = assay: self-aminoacylation, catalytic enhancement (BMO) (fold over background); higher = more active; k-Seq, kA / k0A0; sequences stand for … in GGGAAUGGAUCCACAUCUACGAAUUC…UUCACUGCAGACUUGACGAAGCUG
Summary of the method: (§1)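 Mutagenized RNA pools with a 21-nt variable region (0.43 μM) were reacted with each biotinyl-aminoacyl-oxazolone at 2–1250 μM for 90 minutes at room temperature, in 50 μL HEPES/NaCl/KCl/MgCl2/CaCl2 buffer containing 5% acetonitrile at pH 6.9–7.0. RNA captured on streptavidin was quantified by triplicate qPCR and by Illumina sequencing. The fraction reacted for each sequence was fit to a pseudo-first-order model with bootstrapping, and catalytic enhancement is the median kA divided by the uncatalyzed rate, taken as the low-activity peak of a bimodal Gaussian fit.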

biotinyl-Trp-oxazolone = assay: self-aminoacylation, catalytic enhancement (BWO) (fold over background); higher = more active; k-Seq, kA / k0A0; sequences stand for … in GGGAAUGGAUCCACAUCUACGAAUUC…UUCACUGCAGACUUGACGAAGCUG
Summary of the method: as §1

biotinyl-Phe-oxazolone = assay: self-aminoacylation, catalytic enhancement (BFO) (fold over background); higher = more active; k-Seq, kA / k0A0; sequences stand for … in GGGAAUGGAUCCACAUCUACGAAUUC…UUCACUGCAGACUUGACGAAGCUG
Summary of the method: as §1

biotinyl-Val-oxazolone = assay: self-aminoacylation, catalytic enhancement (BVO) (fold over background); higher = more active; k-Seq, kA / k0A0; sequences stand for … in GGGAAUGGAUCCACAUCUACGAAUUC…UUCACUGCAGACUUGACGAAGCUG
Summary of the method: as §1

biotinyl-Leu-oxazolone = assay: self-aminoacylation, catalytic enhancement (BLO) (fold over background); higher = more active; k-Seq, kA / k0A0; sequences stand for … in GGGAAUGGAUCCACAUCUACGAAUUC…UUCACUGCAGACUUGACGAAGCUG
Summary of the method: as §1

biotinyl-Ile-oxazolone = assay: self-aminoacylation, catalytic enhancement (BIO) (fold over background); higher = more active; k-Seq, kA / k0A0; sequences stand for … in GGGAAUGGAUCCACAUCUACGAAUUC…UUCACUGCAGACUUGACGAAGCUG
Summary of the method: as §1

Row | Sequence | self-aminoacylation (biotinyl-Met-oxazolone) | self-aminoacylation (biotinyl-Trp-oxazolone) | self-aminoacylation (biotinyl-Phe-oxazolone) | self-aminoacylation (biotinyl-Val-oxazolone) | self-aminoacylation (biotinyl-Leu-oxazolone) | self-aminoacylation (biotinyl-Ile-oxazolone)
1 | AUUACGCUGGUCAUCGAGAGA [Fam2.1 aminoacylation ribozyme variant] | 1.44 | 1.59 | 1.36 | 1.73 | 1.42 | 1.21
2 | AUUCACCUAGGCCAUCGGUUG [Fam2.2 aminoacylation ribozyme variant] | 1.05 | 0.695 | 8.73 | 1.04 | 1.32 | 1.08
3 | AUUACCCUGGUCCUCGAGUGC [Fam2.1 aminoacylation ribozyme variant] | 0.658 | 1.31 | 2.51 | 1.06 | 1.07 | 0.969
4 | AGUCAGCUAGGUCAUCGGGUG [Fam2.2 aminoacylation ribozyme variant] | 5.84 | 9.92 | 58.2 | 5.51 | 6.1 | 5.42
5 | CUUCUUCAAACAAUCGGUCAG [Fam1A.1 aminoacylation ribozyme variant] | 0.655 | 2.59 | 5.5 | 0.734 | 0.623 | 0.818
6 | AUGCACCAAGGUCAUCGGGUG [Fam2.2 aminoacylation ribozyme variant] | 7.84 | 9.96 | 59.9 | 5.23 | 9.2 | 4.95
7 | AUAACCCUGGUCAUCGAGGGA [Fam2.1 aminoacylation ribozyme variant] | 1.45 | 0.626 | 2.14 | 1.43 | 2.12 | 1.52
8 | AUUAGCCUAGGUCAUCGGGUG [Fam2.2 aminoacylation ribozyme variant] | 30.9 | 23.3 | 219 | 15.8 | 41.9 | 19
9 | AGGUUAGCUAAUAGUCGCAAG [Fam3.1 aminoacylation ribozyme variant] | 1.46 | 3.06 | 2.66 | 1.77 | 2.16 | 1.97
10 | AUUCAUCUAGGUCAUGGGGUG [Fam2.2 aminoacylation ribozyme variant] | 4.98 | 4.54 | 37 | 3.14 | 6.73 | 3.26
11 | AAGUUUGCAAAUUGUCGCAAG [Fam3.1 aminoacylation ribozyme variant] | 1.47 | 1.53 | 0.968 | 1.19 | 1.57 | 1.26
12 | CUACGUAAAACAAUCGGUCUG [Fam1A.1 aminoacylation ribozyme variant] | 0.999 | 0.819 | 1.38 | 0.999 | 0.755 | 1.18
13 | AAGGUUGCUAAUAGGCGCAAG [Fam3.1 aminoacylation ribozyme variant] | 0.729 | 1.17 | 1.11 | 0.796 | 1.17 | 1.19
